# Measured values as given in IntAct's records for PubMed 15678106.
# B1: Tumor protein p73 (Homo sapiens), O15350-1 (parent)
# chain: MAQSTATSPDGGTTFEHLWSSLEPDSTYFDLPQSSRGNNEVVGGTDSSMDVFHLEGMTTSVMAQFNLLSSTMDQMSSRAASASPYTPEHAASVPTHSPYAQPSSTFDTMSPAPVIPSNTDYPGPHHFEVTFQQSSTAKSATWTYSPLLKKLYCQIAKTCPIQIKVSTPPPPGTAIRAMPVYKKAEHVTDVVKRCPNHELGRDFNEGQSAPASHLIRVEGNNLSQYVDDPVTGRQSVVVPYEPPQVGTEFTTILYNFMCNSSCVGGMNRRPILIIITLEMRDGQVLGRRSFEGRICACPGRDRKADEDHYREQQALNESSAKNGAASKRAFKQSPPAVPALGAGVKKRRHGDEDTYYLQVRGRENFEILMKLKESLELMELVPQPLVDSYRQQQQLLQRPSHLQPPSYGPVLSPMNKVHGGMNKLPSVNQLVGQPPPHSSAATPNLGPVGPGMLNNHGHAVPANGEMSSSHSAQSMVSGSHCTPPPPYHADPSLVSFLTGLGCPNCIEYFTSQGLQSIYHLQNLTIEDLGALKIPEQYRMTIWRGLQDLKQGHDYSTAQQLLRSSNAATISIGGSGELQRQRVMEAVHFRVRHTITIPNRGGPGGGPDEWADFGFDLPDCKARKQPIKEEFTEAEIH
# Variants of: B1
# Conditions: with itch_human ITCH
row,effect of a mutation on the interaction,Variant
1,disrupting interaction,Y487F
